Experiment [1] concerns the target AP-7-168-stabilized β2AR dimer (construct PN1) (UniProt P07550). Briefly: BLI. (Biolayer interferometry detects binding as a change in optical thickness at a sensor tip.)
For experiment [2], the target named is β2-adrenergic receptor (β2AR), construct PN1, monomeric (UniProt P07550). Briefly: BLI.

Our source for the Kd values is article PMC13645619.

With “heterotrimeric Gs (Gαsβ1γ2) (from UniProt P63092;P62873;P59768) (complex)”, the Kd in experiment [1] is 3110 nM; in experiment [2] it was 1710 nM.

By Kd is commonly meant a measure of binding affinity in units of concentration. Read a low Kd as higher affinity.
